Experimental data reported in PMC4114019.

Target: T1, Purified FLAG-IKKε protein, Q14164
T1 chain: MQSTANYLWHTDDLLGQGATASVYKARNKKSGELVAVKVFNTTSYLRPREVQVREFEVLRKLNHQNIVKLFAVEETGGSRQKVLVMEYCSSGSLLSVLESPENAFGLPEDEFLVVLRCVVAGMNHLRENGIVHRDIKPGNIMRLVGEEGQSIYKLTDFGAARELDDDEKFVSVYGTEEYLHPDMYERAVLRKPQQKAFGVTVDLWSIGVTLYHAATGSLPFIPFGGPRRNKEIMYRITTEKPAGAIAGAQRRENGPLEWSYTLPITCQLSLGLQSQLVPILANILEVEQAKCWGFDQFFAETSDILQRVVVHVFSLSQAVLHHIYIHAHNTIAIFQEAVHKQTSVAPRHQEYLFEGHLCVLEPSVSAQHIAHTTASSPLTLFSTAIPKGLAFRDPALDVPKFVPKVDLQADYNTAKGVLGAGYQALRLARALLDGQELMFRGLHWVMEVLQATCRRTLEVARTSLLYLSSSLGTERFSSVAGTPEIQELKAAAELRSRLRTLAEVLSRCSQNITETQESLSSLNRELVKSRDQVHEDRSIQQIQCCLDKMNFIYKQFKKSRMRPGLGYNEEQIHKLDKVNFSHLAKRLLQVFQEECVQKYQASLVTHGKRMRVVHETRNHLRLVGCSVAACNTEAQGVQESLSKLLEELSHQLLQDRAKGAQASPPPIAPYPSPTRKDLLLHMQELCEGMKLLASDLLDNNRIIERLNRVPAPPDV
Assay: native gel or EMSA
Settings: remark: other sources report otherwise

B1: Purified FLAG-IKKε protein, Q14164 1-716 (enzyme)
chain: T1 chain
stoichiometry N: 2
